Laboratory results reported in paper PMC8239744, “Mutations in myosin S2 alter cardiac myosin-binding protein-C interaction in hypertrophic cardiomyopathy in a phosphorylation-dependent manner” (The Journal of Biological Chemistry, 2021).

Tests used:
[1] = target: human β-myosin heavy chain, proximal S2 (hS2) proximal S2, 838-963 (UniProt P12883); experiment: solid-phase binding assay (SPBA); conditions: sites S273,S282,S302
[2] = target: mouse recombinant C0-C2 protein, phospho-ablated (mC0-C2^AAA) (mouse) (UniProt O70468); experiment: solid-phase binding assay (SPBA); 20 μM C0-C2 (bait) adsorbed onto microtiter plates overnight at 4 °C; 0-20 μM recombinant myosin S2 (prey) added; bound S2 detected with polyclonal anti-S2 antibody and Alexa Fluor 568 secondary antibody; intensity normalised to that at maximal S2; one-phase association fit for Bmax and Kd
Chain of mouse recombinant C0-C2 protein, phospho-ablated (mC0-C2^AAA) (mouse) (O70468 other isoform, or with tags, fused parts or gaps): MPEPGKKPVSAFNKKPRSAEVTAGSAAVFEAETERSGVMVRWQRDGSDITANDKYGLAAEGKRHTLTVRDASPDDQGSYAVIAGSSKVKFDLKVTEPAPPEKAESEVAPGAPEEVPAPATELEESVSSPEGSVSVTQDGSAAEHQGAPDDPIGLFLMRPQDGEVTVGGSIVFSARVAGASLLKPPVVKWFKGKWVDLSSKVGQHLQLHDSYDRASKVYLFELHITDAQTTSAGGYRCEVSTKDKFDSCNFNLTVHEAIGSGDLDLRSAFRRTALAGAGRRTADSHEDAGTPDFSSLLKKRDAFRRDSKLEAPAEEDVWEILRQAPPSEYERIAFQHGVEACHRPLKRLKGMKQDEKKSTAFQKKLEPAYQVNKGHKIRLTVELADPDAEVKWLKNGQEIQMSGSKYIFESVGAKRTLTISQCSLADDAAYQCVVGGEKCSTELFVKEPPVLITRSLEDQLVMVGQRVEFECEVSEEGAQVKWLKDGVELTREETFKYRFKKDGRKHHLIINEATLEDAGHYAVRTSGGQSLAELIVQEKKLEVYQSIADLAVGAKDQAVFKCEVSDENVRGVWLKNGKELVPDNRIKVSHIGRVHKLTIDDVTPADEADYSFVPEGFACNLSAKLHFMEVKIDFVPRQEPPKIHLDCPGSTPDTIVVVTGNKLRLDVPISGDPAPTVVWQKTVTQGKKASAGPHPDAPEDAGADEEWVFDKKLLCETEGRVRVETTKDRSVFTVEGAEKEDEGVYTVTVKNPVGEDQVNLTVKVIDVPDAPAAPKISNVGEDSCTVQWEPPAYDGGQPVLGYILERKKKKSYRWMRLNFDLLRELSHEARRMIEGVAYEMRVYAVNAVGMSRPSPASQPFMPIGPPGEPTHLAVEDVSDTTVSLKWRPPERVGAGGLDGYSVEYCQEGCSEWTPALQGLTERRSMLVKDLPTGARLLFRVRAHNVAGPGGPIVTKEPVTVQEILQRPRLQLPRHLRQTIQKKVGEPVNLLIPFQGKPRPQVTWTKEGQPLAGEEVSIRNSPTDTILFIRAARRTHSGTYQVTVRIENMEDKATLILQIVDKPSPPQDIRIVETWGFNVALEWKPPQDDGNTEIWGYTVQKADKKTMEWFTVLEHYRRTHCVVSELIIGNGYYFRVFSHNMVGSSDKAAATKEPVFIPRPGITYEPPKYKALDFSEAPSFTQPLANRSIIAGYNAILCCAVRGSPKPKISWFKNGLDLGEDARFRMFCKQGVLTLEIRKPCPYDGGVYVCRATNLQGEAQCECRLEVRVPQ

[3] = target: PKA-phosphorylated human C0-C2 (hC0-C2p) (human) (UniProt Q14896); experiment: as above
[4] = target: mouse recombinant C0-C2 protein, phospho-mimetic (mC0-C2^DDD) (mouse) (UniProt O70468); experiment: as above
Chain of mouse recombinant C0-C2 protein, phospho-mimetic (mC0-C2^DDD) (mouse) (O70468 other isoform, or with tags, fused parts or gaps): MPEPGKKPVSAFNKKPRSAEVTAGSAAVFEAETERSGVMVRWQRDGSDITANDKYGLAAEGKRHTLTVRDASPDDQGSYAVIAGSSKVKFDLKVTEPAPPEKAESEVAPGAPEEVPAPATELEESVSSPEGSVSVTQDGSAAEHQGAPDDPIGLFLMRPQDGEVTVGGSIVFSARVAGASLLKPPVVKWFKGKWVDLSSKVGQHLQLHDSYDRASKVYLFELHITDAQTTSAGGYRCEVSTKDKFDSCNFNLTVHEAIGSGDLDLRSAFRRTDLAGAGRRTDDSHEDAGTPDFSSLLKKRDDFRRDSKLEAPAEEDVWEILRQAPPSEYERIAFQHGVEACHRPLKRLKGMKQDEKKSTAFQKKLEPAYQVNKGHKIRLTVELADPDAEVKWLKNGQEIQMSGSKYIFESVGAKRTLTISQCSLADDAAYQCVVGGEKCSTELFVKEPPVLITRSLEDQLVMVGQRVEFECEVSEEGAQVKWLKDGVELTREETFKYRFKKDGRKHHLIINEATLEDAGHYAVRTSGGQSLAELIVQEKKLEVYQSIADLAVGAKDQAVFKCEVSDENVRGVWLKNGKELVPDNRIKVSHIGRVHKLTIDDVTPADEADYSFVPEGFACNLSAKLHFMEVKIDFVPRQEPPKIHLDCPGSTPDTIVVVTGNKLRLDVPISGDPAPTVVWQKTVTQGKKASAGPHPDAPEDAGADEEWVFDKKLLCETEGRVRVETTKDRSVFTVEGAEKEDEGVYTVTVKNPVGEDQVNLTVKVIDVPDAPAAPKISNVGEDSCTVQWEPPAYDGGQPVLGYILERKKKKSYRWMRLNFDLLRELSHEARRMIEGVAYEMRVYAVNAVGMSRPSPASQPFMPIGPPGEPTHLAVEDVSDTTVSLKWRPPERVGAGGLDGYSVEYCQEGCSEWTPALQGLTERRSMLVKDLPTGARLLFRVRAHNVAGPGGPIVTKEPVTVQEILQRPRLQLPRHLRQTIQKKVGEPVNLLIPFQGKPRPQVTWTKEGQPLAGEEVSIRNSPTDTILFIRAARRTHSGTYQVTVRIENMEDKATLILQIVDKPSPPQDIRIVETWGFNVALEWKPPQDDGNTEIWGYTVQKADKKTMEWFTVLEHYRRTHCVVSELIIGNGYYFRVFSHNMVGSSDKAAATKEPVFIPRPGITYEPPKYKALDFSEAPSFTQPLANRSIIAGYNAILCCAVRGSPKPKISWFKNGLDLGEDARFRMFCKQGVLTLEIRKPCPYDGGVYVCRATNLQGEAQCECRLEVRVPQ

[5] = target: human C0-C2 region of cardiac myosin-binding protein-C (hC0-C2) (human) (UniProt Q14896); experiment: as above
[6] = target: human C0-C2 region of cardiac myosin-binding protein-C (hC0-C2) (human) (UniProt Q14896); experiment: ITC; 350 μM hS2 titrated into 20 μM hC0-C2 (with or without PKA phosphorylation) in PBS at 20 °C; MicroCal VP-ITC; 25 injections of 10 μl at 180 s; four-parameter logistic fit; Kd calculated from the reciprocal of the slope
[7] = target: mouse recombinant C0-C2 protein, WT (mC0-C2^Wt) (mouse, UniProt O70468 1-448); experiment: solid-phase binding assay (SPBA); 20 μM C0-C2 (bait) adsorbed onto microtiter plates overnight at 4 °C; 0-20 μM recombinant myosin S2 (prey) added; bound S2 detected with polyclonal anti-S2 antibody and Alexa Fluor 568 secondary antibody; intensity normalised to that at maximal S2; one-phase association fit for Bmax and Kd; conditions: both partners purified
Chain of mouse recombinant C0-C2 protein, WT (mC0-C2^Wt) (O70468 1-448): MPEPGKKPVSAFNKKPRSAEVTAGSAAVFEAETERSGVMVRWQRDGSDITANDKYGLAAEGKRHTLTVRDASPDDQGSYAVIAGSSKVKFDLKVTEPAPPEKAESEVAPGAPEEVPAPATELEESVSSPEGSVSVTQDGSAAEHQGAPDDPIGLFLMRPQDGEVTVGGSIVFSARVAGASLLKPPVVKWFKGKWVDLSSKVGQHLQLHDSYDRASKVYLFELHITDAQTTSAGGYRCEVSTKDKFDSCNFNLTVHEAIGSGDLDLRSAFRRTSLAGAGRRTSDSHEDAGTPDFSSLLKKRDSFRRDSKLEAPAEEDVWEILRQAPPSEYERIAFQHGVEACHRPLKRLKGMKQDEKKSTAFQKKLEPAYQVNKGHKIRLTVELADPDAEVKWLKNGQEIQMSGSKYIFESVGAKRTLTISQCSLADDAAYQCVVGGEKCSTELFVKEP

[8] = target: PKA-phosphorylated human C0-C2 (hC0-C2p) (human) (UniProt Q14896); experiment: ITC; 350 μM hS2 titrated into 20 μM hC0-C2 (with or without PKA phosphorylation) in PBS at 20 °C; MicroCal VP-ITC; 25 injections of 10 μl at 180 s; four-parameter logistic fit; Kd calculated from the reciprocal of the slope

For “mouse cardiac myosin-binding protein-C (cMyBP-C), mC0-C2 C0-C2 (from UniProt O70468) mC0-C2 DDD”, the “other: Bmax” value ([1]; reference: mC0-C2 AAA) was “weaker; reference 0.95 ± 0.04” and the “other: Bmax” value ([1]; reference: mC0-C2 wild type) was “weaker; reference 1.02 ± 0.04”.

B1: human recombinant proximal S2 WT protein (hS2^Wt) (domain or fragment, UniProt P12883 838-963, looked up)
chain: PLLKSAEREKEMASMKEEFTRLKEALEKSEARRKELEEKMVSLLQEKNDLQLQVQAEQDNLADAEERCDQLIKNKIQLEAKVKEMNERLEDEEEMNAELTAKKRKLEDECSELKRDIDDLELTLAK
notes: pET28a+ vector; also called WT hS2; human cardiac myosin S2
B1 showed a Kd [2] of 1810 nM, a Kd [3] of 7350 nM and a stoichiometry (η) based on Bmax, hC0-C2p to hS2^Wt compared with hC0-C2 to hS2^WT [3] of 1.26. The Kd [4] was 2020 nM, the Kd [5] was 5040 nM and the Kd [6] was 4710 nM. For the same molecule, the stoichiometry N [6] was 1.08 and the Kd [7] was 1890 nM.

B2: human recombinant proximal S2 protein with E924K mutation (hS2^E924K) (domain or fragment, UniProt P12883 838-963, looked up)
chain: PLLKSAEREKEMASMKEEFTRLKEALEKSEARRKELEEKMVSLLQEKNDLQLQVQAEQDNLADAEERCDQLIKNKIQLEAKVKEMNKRLEDEEEMNAELTAKKRKLEDECSELKRDIDDLELTLAK
notes: human β-myosin heavy chain (MYH7), proximal S2, residues 838-963, with the HCM-causing mutation E924K; mutation found in HCM patients, introduced by site-directed mutagenesis; coiled coil in low-salt buffer by CD
With B2 the Kd [2] was 1480 nM, the Kd [3] was 830 nM and the stoichiometry (η) based on Bmax, hC0-C2p to hS2 mutant [3] was 1.21. It also gave a Kd [4] of 740 nM, a Kd [5] of 4300 nM and a stoichiometry (η) based on Bmax, hC0-C2 to hS2 mutant compared with hS2^WT [5] of 1.21. It also gave a Kd [8] of 16500 nM, a stoichiometry N [8] of 2.57 and a Kd [6] of 30500 nM. It also gave a Kd [7] of 1510 nM.

B3: human recombinant proximal S2 protein with R870H mutation (hS2^R870H) (domain or fragment, UniProt P12883 838-963, looked up)
chain: PLLKSAEREKEMASMKEEFTRLKEALEKSEARHKELEEKMVSLLQEKNDLQLQVQAEQDNLADAEERCDQLIKNKIQLEAKVKEMNERLEDEEEMNAELTAKKRKLEDECSELKRDIDDLELTLAK
notes: human β-myosin heavy chain (MYH7), proximal S2, residues 838-963, with the HCM-causing mutation R870H; mutation found in HCM patients, introduced by site-directed mutagenesis; coiled coil in low-salt buffer by CD
For B3, the Kd [2] was 1510 nM, the Kd [3] was 1260 nM and the stoichiometry (η) based on Bmax, hC0-C2p to hS2 mutant [3] was 1.17. The Kd [4] was 790 nM, the Kd [5] was 6290 nM and the stoichiometry (η) based on Bmax, hC0-C2 to hS2 mutant compared with hS2^WT [5] was 1.24. It also gave a Kd [8] of 11000 nM, a stoichiometry N [8] of 1.07 and a Kd [6] of 19000 nM. For the same molecule, the stoichiometry N [6] was 2.53 and the Kd [7] was 1640 nM.

B4: human recombinant proximal S2 protein with E930Δ mutation (hS2^E930Δ) (domain or fragment, UniProt P12883 838-963, looked up)
chain: PLLKSAEREKEMASMKEEFTRLKEALEKSEARRKELEEKMVSLLQEKNDLQLQVQAEQDNLADAEERCDQLIKNKIQLEAKVKEMNERLEDEEMNAELTAKKRKLEDECSELKRDIDDLELTLAK
notes: human β-myosin heavy chain (MYH7), proximal S2, residues 838-963, with the HCM-causing deletion of E930; mutation found in HCM patients, introduced by site-directed mutagenesis; coiled coil in low-salt buffer by CD
In the case of B4, the Kd [2] is reported as 1220 nM, the Kd [3] is reported as 970 nM and the stoichiometry (η) based on Bmax, hC0-C2p to hS2 mutant [3] is reported as 1.24. It also gave a Kd [4] of 880 nM, a Kd [5] of 6670 nM and a stoichiometry (η) based on Bmax, hC0-C2 to hS2 mutant compared with hS2^WT [5] of 1.23. The Kd [8] was 8570 nM, the stoichiometry N [8] was 0.35 and the Kd [6] was 42300 nM. It also gave a Kd [7] of 1320 nM.
